This note sets out measurements from the supplement of paper PMC12636428.

This data set relates to Saccharomyces cerevisiae. The experiment in a line: transcriptional activation domain activity (GFP:mCherry ratio, weighted mean of sorted bins, harmonized to initial dataset scale) (arbitrary fluorescence ratio units); higher = stronger transcriptional activation. The conditions noted are these: beta-estradiol 1 µM; induction time 4 h. The procedure, abridged: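 Barcoded tiles were sequenced after cells were sorted into 8 bins by GFP:mCherry ratio. Before sorting, cultures had been diluted 1:5 into SC with 1 uM beta-estradiol and held for 4 hours at 30 °C. The tiles were fused to an estradiol-inducible synthetic transcription factor and integrated at URA3 in yeast diploids carrying a GFP reporter. Activation activity is the read-weighted mean of bin median fluorescence, averaged over barcodes and linearly mapped onto the initial dataset scale, and tiles under 50 reads were left out.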

On to “MPVLPYFFAKFIIDIPRIVIGGSMFSLALVVFFPYQQPFVRMYGMVIILYFYS”, for which the “transcriptional activation domain activity” value was 51200.
The result for “QDEKHAEREGDTSSADGKEKSQDGDGGEKQKEGEGKPEKRNGVEAGAKNPAVK” reads 10600; that for “GATSTPAATGTTGGLFGSGGTTTGGFGSTSTPAAGGFGSTSTGGGLFGAKPAT”, 21400; that for “LALIRGGSHVGQVTFDRHSIASEGVVWCLAVKFKGVTLNLSWSEAVYRWFHVL”, 57300.
Next, “FVEDPEMRRSIVRKFDWRVLTWMAGLSSYLRLWVLYRSSLTRLLMCLVLCINA”: 69800; “IHFFFFGGTYFFFFCQWGFGGFFFSFLTFIPFFSYIFHIFHYAVLWLWLWLWL”: 59800; “MAAPPFLWTLFFFLFSILLLLSHTYFFLLLLACFFRFWFFYCSFYFSFDFLSS”: 37900.
As for “SSATDSNPNTNLEDSLFFDHDLLSSSITNTNNGQGSNNGRQASKDDTLNLLDT”, the “transcriptional activation domain activity” value came out at 37900.
The result for “SASASASGATASASASAAAGAGGKGGFGGKGGFGGGFGGKGQGGKGGKGGAAA” reads 34000; that for “PFPLLPFPLLPFPLLPSPLPIPLLPIPLLSFPLLPFPFLPFPLLSYPLFHFTV”, 44800.
Next, “WKKTIQNKIKDSLTLSSKEKELLHLIEHGAEQTTENSNLFYDIFEEIIDSLPS”: 112000; “VQRYLCQYQPQITLGFMIFTDMIFFFLDTYLCYVLLNTIFSIARSFYIGSSIW”: 56700.
Next, “ANPEPTDDDFHIFGGRHVFFTTDDPWLIFLGFILQHLDRLLNRMLFWWCVEWV”: 56900; “VHLTLNLGTYLRVISIGKPFPMWLDYWYNYGYILYCAILQLYELWQIVILIWL”: 60100; “ASKRKRTEGESKKKEAKRERPKKKSRRDDDDDASGGDELEGKRSRKPKRASAS”: 18500.
For “HAQGEGEYKAAQAEGYAEGTQDRFGGKKDAVIGALTGDRKQEASGTLIPRLKL”, the “transcriptional activation domain activity” value came to 34400.
Next, “GTLNAQVTICEYSSTGQPLNGQGGCYNLHPVFNWIHHCIMSIFLVFMIAWLPL”: 78500; “LRLSTTISAYGIGIGYTAAVLVQVLSIVILILLESTTFALRLVLFVVGAWWLI”: 46900.
The result for “NESGPGAADEDAEEDDEESDEDGAGRKRKKPKVEPKPKPERKAPAPAPADGEK” reads less than 6570; that for “MEQSMGFMIHVYITVIPLGDVYEVLVFLILRSILPLPPGFLCLSLLLHDLFFI”, 62400.
Next, “MASEQVEEVTKKVADVAIEAPAAAPAKAPKAPKAPKAKKAKKEAAEGSSPLEL”: 13700; “PEAAPGEEVKEEAGEEQKPDRRDRRGRDRGGRGGRDRGRGRGGASRGGKRGDT”: 26700.
On to “EKERGRERERKERKVNGAWIKTKPKKRRDDSARARRHTRRRDVSSSASPTREM”, for which the “transcriptional activation domain activity” value was determined as 25800.
Next, “GLVSLDRLLVNRFGEALLSMGRAPTWSWKRALRAVLLSLVELSARCEFKLGSN”: 48400.
Next, “SEGLLCPLPRYPPHPIVSQLMQTSALRSLQTIVQLQRAHFMTLLFWNILLAFY”: 57100; “MAPPFLGHFFGLYPSIMIRFPCLLLYRFATVYLGVLLFPFSILFFILFIFYFF”: 34200; “FFELLGLFVFFVLFLVGAAIASTFWGDLFWCHSFWQCRVLTVLVAFAWMCWVL”: 46900.
Next, “EREILWRAYLRLIKHVNSIFKIRIAYEWTEDYVIKYLWSAAGYCLISIPILFT”: 77100; “LFSQLFFPREQAKGVLGWLVWILYMLEKVLFSFSKRRGFFIVCQLEFCVLILT”: 40300; “TAPSATSAAALVTSPATALRVAMVVSRAAAPAAATTVPARARPATPAVVSATC”: 51300.
With “GGEGALTVAASARERERERERDREEREKREKRERARESQAVKRKKRPAEKEPP”, the “transcriptional activation domain activity” value stood at 38000.
On to “LLVLYGLTWAFNLISCMLISTNNGNYISCILGLFNCVFVYTLTKMILYLYFIE”, for which the “transcriptional activation domain activity” value worked out at 57000.
Next, “VVENHKREVQYARYHCLKSWRLTLDVCLKRAFHLVPTVGRHELLISMLQAIIG”: 37300; “MVVFLFSFRVWVLLWICKISFINFVPMSTCRGLMVVRLRLNQTWGIRSLVPWL”: 29600; “MCGRLISLLVVLLLVKFRNSSLCGILDVFLFFFRRTPFVRMGFYFMIFLLLTI”: 65500.
For the sequence “LLCKKVVAFFQLLSESHVSGMRRLGVTQELLSLVTGLAHYLKLLIRICLQGAL”, the “transcriptional activation domain activity” value was 72100.
Regarding “TMYYDAIWLMWKDHSLQGWEVAHNTFDQLHVVLDDHLLYPVLNLLMIVIILPD”, the “transcriptional activation domain activity” value is 51200.
On to “LCVFDLLVLTTTAFIQSGVYCAFDWTVSTIEVRGVCVLAVLIATIPIVFIAYA”, for which the “transcriptional activation domain activity” value is 31400.
Next, “ISNHQVYADWWYAWCLTYFMGTHKDIFIVLKKSLKWLPIVGWGMQFFNFIFLA”: 48400.
Next, “TFLANILPITFYFYFYLHFLFLFFFFLFSLSAFLFFLFLYFYFLFSPLFLPFI”: 63700.
The result for “MGLIYLYFIFFINLLIWFSVVFCELYFFFFCLCLSNCIFEIYFYVLFFNIFLY” reads 51000; that for “LPSSLLFLLPHLFPTLPLLPSIPLLTPSSSSLFFHLICLYCPPFAFWAWFWFW”, 55900.
Consider “IELSRNFVNVPDFVCFFNLPDNLSVLYTLEIVYFGQLLLFHSIIYALVLIRFW”, for which the “transcriptional activation domain activity” value came out at 47900.
Turning to “YCGSLGCMILVAGIKLLRLLKHHLTVQRALRSNIGKIKAGMLKVKIIMIVGCV”, the “transcriptional activation domain activity” value was 66400.
Next, “MYFIILAFVWCFCSCFCFRCVAFWWPLSLSLCLSVGIYLLAFFFFFTTLVLVY”: 26200.
As to “MIFFLPLVFTSFFFIFFYMYYTVWTLHLSFVKSLEACMNPWIWELYGSTFIHL”, the “transcriptional activation domain activity” value turned out to be 60000.
Next, “EDEEEAPAKVIKAKRAPPKRKAPAKDDDDEESAEEKPKKKKAPSKKAAAKAQA”: 38200.
Next, “KAGKKKYVESVNGRRREVLVIVGKDGKTKRKTRWLDPESAATETGVPWGLEVP”: 28800; “SDSGSEVDEKNNKNEKIDSESIKNNESKDDIPSKDENSSNDNREISKTDEEGH”: 35100.
Next, “SNKRNKDENRGRSRTRSASRGRSRSASVFSDARSRSRARSRSRAATMAKAGAA”: 36300.
On to “IDGIDLEEAGNFREIETYYRDYLSPIDRLSIISVQENNVIFQDKGNVSRENIE”, for which the “transcriptional activation domain activity” value worked out at 73100.
The result for “IHILHGTLQTIIAHSRAPHFLHVPCMRLPLLLLLIPPLYFEYCLLLLSPFFFA” reads 51200; that for “KRRRWQLALLLLFWFAWLATFITVIHNSRFVSKVNGQDPYLLSCTSVLWSKNN”, 47100.
The result for “PPEEEAEEAVGAEKAEEAEEAEEAEEAVEEEPPKAANGRRSRAAAASAAKSSN” reads 35500; that for “DAFADGDGDATVTEGETSEKPKKARKKRAKKDTGEDDAEAKPKKKAKRKAKAA”, 14500.
